Measurements from IntAct's records for PubMed 22677173.

B1: Spermatogenesis-defective protein 39 homolog (Homo sapiens), Q9H9C1 (parent)
chain: MNRTKGDEEEYWNSSKFKAFTFDDEDDELSQLKESKRAVNSLRDFVDDDDDDDLERVSWSGEPVGSISWSIRETAGNSGSTHEGREQLKSRNSFSSYAQLPKPTSTYSLSSFFRGRTRPGSFQSLSDALSDTPAKSYAPELGRPKGEYRDYSNDWSPSDTVRRLRKGKVCSLERFRSLQDKLQLLEEAVSMHDGNVITAVLIFLKRTLSKEILFRELEVRQVALRHLIHFLKEIGDQKLLLDLFRFLDRTEELALSHYREHLNIQDPDKRKEFLKTCVGLPFSAEDSAHIQDHYTLLERQIIIEANDRHLESAGQTEIFRKHPRKASILNMPLVTTLFYSCFYHYTEAEGTFSSPVNLKKTFKIPDKQYVLTALAARAKLRAWNDVDALFTTKNWLGYTKKRAPIGFHRVVEILHKNNAPVQILQEYVNLVEDVDTKLNLATKFKCHDVVIDTYRDLKDRQQLLAYRSKVDKGSAEEEKIDALLSSSQIRWKN
partner: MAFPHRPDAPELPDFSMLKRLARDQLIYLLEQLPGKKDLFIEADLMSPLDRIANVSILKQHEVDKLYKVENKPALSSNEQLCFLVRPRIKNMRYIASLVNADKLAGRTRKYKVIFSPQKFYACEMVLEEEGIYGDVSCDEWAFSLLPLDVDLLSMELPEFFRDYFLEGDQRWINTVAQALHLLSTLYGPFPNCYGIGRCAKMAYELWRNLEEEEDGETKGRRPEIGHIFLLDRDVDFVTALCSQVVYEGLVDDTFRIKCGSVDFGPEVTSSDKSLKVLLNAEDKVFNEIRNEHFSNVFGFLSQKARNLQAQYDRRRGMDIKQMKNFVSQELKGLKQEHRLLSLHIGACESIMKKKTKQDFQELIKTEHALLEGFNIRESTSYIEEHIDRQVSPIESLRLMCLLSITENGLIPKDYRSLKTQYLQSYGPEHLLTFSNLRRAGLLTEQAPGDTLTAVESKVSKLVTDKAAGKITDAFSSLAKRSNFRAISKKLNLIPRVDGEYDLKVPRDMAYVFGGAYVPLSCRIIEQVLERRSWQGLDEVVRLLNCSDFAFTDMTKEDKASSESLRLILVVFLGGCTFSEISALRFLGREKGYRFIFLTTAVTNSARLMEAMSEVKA

Variants of: B1
Details: with vp33b_human VPS33B

Question: For MNRTKGDEEEFWNSSKFKAFTFDDEDDELSQLKESKRAVNSLRDFVDDDDDDDLERVSWSGEPVGSISWSIRETAGNSGSTHEGREQLKSRNSFSSYAQLPKPTSTYSLSSFFRGRTRPGSFQSLSDALSDTPAKSYAPELGRPKGEYRDYSNDWSPSDTVRRLRKGKVCSLERFRSLQDKLQLLEEAVSMHDGNVITAVLIFLKRTLSKEILFRELEVRQVALRHLIHFLKEIGDQKLLLDLFRFLDRTEELALSHYREHLNIQDPDKRKEFLKTCVGLPFSAEDSAHIQDHYTLLERQIIIEANDRHLESAGQTEIFRKHPRKASILNMPLVTTLFYSCFYHYTEAEGTFSSPVNLKKTFKIPDKQYVLTALAARAKLRAWNDVDALFTTKNWLGYTKKRAPIGFHRVVEILHKNNAPVQILQEYVNLVEDVDTKLNLATKFKCHDVVIDTYRDLKDRQQLLAYRSKVDKGSAEEEKIDALLSSSQIRWKN [Y11F], which “effect of a mutation on the interaction” value is on record?
Answer: increasing interaction
